Results taken from the supplement of paper PMC10065799, “High-throughput profiling of sequence recognition by tyrosine kinases and SH2 domains using bacterial peptide display” (eLife, 2023).

How the values were obtained:
EPHB2 = EPHB2 (UniProt P29323); test: phosphorylation enrichment, bacterial display (enrichment ratio); higher = better substrate or ligand; peptides without Tyr show the background
MERTK = MERTK (UniProt Q12866); test: as above
Hck = Hck (UniProt P08631); test: as above
c-Src = test: as above
Fes = Fes (UniProt P07332); test: as above
FGFR1 = FGFR1 (UniProt P11362); test: as above
Fer (mouse) = test: as above
EPHB1 = EPHB1 (UniProt P54762); test: as above
c-Abl (mouse) = test: as above
Jak2 = Jak2 (UniProt O60674); test: as above
FGFR3 = FGFR3 (UniProt P22607); test: as above
AncSZ = test: as above
Fyn = Fyn (UniProt P06241); test: as above
c-Src SH2 = test: SH2 binding enrichment of the phosphorylated peptide, bacterial display (enrichment ratio); higher = better substrate or ligand; peptides without Tyr show the background
Grb2 SH2 = Grb2 SH2 (UniProt P62993); test: as above
SHP2-C SH2 = test: as above
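Wherever SH2 binding enrichment of the phosphorylated peptide, bacterial display is given: peptide library displayed on the E. coli surface as eCPX fusions, selected cells deep-sequenced, score is each peptide's frequency after selection divided by its frequency in the input.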
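Wherever phosphorylation enrichment, bacterial display is given: 11-residue human phosphosite peptides and single-mutation variants displayed on the E. coli surface, counted by deep sequencing, each peptide's frequency after selection divided by its frequency in the unselected input library; frequency after pTyr selection over input frequency; kinase dosed for 20-30% of maximal phosphorylation in three min.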

Fes, sequence (P07332 whole entry, looked up): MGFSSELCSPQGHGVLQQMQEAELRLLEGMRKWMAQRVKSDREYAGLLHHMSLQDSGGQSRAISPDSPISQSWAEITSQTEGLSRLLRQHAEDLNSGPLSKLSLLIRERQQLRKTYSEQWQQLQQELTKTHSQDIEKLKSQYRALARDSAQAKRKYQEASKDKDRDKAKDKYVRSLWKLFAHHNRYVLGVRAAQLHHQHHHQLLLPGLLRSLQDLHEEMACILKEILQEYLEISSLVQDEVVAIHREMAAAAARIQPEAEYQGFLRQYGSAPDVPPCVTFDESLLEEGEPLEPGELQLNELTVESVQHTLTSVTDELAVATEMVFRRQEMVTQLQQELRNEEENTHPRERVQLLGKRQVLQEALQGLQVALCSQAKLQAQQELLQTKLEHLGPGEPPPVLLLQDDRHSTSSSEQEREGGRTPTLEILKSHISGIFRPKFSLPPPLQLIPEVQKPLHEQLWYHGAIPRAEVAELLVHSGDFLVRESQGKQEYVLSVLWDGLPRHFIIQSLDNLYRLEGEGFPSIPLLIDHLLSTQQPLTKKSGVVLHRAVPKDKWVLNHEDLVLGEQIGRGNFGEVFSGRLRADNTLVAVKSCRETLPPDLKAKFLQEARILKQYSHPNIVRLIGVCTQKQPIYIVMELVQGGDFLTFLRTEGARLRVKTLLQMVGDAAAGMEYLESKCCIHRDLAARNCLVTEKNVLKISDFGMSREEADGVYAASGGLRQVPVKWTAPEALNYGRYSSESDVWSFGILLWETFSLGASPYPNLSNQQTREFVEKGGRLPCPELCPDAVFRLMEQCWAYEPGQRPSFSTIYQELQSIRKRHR
MERTK, sequence (Q12866 whole entry, looked up): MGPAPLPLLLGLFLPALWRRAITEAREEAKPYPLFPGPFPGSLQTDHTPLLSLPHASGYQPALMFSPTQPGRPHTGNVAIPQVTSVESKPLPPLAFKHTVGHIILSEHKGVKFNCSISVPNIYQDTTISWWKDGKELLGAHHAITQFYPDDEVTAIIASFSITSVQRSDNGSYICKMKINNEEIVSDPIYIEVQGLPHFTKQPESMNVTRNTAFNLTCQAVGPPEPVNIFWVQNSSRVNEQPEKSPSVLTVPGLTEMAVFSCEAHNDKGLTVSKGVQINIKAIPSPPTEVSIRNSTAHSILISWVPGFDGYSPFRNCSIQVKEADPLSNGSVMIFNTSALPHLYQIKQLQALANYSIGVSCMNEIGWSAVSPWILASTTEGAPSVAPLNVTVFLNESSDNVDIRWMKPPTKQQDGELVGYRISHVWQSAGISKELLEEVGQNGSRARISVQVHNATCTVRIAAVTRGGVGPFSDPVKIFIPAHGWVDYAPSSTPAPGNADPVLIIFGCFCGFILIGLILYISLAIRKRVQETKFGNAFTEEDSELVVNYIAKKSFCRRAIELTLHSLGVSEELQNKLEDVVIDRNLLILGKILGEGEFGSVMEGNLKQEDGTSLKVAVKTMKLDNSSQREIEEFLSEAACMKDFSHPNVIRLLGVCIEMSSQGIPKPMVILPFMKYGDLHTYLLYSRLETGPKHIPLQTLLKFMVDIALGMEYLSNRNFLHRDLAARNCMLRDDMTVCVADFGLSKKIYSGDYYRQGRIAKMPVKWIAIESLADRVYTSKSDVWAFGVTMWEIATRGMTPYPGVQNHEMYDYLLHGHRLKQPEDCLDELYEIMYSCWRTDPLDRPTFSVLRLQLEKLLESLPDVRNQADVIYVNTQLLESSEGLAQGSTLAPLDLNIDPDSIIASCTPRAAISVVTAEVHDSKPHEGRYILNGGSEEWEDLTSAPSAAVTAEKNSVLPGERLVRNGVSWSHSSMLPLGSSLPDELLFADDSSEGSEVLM
Jak2, sequence (O60674 whole entry, looked up): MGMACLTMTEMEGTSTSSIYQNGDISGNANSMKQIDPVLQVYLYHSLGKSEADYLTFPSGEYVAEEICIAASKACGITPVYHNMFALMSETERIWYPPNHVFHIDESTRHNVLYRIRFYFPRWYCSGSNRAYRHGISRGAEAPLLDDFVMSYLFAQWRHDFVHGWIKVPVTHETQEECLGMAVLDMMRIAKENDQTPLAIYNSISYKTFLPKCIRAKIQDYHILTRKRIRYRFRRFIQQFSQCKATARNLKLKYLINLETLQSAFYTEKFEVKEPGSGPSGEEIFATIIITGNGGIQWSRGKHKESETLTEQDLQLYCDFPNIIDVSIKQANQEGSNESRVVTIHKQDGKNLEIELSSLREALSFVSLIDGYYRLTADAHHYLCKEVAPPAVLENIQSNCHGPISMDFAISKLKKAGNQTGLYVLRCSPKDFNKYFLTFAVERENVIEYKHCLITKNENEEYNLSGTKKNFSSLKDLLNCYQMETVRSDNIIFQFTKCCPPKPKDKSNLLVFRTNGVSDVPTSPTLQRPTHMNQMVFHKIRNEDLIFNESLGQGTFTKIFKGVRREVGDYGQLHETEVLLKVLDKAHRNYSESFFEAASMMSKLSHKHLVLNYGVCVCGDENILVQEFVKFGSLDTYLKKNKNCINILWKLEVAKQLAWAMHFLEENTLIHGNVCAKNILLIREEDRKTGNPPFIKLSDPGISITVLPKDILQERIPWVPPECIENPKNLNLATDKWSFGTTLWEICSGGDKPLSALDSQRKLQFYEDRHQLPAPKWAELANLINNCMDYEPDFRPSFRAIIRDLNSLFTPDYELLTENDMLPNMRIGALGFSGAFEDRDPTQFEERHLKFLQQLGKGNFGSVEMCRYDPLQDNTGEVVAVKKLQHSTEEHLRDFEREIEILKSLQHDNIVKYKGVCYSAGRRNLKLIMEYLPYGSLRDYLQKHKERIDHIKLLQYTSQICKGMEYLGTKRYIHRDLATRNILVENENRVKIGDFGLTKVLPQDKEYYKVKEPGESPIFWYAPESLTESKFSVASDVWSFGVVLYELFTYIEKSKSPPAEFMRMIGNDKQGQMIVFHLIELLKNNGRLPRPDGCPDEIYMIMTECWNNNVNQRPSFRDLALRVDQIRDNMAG
FGFR1, sequence (P11362 whole entry, looked up): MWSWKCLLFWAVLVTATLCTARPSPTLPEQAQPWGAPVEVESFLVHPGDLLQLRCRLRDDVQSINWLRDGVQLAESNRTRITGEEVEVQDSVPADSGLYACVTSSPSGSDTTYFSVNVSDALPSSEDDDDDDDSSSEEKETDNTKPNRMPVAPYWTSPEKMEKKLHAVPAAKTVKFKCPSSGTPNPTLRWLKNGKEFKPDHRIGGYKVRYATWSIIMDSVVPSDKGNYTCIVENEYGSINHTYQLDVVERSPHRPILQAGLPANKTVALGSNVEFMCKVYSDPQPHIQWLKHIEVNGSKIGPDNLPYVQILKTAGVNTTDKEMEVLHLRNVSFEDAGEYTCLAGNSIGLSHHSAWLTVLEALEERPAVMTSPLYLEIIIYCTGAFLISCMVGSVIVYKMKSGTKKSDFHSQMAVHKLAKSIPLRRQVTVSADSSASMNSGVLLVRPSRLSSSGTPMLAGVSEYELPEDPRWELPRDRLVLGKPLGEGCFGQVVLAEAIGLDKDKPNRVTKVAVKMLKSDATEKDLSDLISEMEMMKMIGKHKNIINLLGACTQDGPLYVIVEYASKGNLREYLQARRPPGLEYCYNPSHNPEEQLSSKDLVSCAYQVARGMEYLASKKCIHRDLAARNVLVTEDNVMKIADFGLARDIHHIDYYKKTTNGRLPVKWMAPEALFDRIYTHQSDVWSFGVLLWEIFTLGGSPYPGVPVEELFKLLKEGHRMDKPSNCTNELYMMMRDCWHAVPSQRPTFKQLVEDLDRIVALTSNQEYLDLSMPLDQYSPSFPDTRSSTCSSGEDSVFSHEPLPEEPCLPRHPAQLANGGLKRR
Hck, sequence (P08631 whole entry, looked up): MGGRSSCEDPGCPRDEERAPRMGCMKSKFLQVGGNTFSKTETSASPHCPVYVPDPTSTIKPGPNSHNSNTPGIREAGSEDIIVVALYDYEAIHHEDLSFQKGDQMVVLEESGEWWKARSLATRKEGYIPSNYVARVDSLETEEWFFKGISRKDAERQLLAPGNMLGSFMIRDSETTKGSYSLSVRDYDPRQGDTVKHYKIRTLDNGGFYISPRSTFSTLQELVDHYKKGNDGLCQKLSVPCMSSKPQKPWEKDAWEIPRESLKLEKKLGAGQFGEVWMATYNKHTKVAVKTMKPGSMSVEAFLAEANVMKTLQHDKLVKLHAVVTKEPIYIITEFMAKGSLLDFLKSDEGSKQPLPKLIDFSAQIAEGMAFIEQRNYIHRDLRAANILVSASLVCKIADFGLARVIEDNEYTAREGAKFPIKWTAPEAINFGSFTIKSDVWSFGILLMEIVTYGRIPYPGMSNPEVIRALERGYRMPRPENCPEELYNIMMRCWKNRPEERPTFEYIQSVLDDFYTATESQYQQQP
Fyn, sequence (P06241 whole entry, looked up): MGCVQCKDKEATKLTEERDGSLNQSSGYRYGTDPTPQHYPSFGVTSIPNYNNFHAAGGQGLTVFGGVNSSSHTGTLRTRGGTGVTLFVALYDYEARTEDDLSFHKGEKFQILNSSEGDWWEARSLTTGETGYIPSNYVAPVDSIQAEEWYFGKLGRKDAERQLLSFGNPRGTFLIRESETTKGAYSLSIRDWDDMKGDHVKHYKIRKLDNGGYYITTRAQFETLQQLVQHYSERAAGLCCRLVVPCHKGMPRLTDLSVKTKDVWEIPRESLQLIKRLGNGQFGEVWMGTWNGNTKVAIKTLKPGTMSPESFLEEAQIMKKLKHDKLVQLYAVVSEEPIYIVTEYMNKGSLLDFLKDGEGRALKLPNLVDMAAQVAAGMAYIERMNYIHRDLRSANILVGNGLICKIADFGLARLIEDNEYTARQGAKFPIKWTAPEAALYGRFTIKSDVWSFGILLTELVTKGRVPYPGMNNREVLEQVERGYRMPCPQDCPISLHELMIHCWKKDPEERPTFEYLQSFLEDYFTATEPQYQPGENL
Grb2 SH2, sequence (P62993 whole entry, looked up): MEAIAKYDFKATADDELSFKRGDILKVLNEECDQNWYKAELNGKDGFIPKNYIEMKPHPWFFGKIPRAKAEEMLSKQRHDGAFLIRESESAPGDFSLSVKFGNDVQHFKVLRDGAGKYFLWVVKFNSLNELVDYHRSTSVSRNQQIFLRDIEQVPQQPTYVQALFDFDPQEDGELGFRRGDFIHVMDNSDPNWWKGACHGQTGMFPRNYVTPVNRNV

Sequence | phosphorylation enrichment (EPHB2) | phosphorylation enrichment (MERTK) | phosphorylation enrichment (Hck) | phosphorylation enrichment (c-Src) | phosphorylation enrichment (Fes) | phosphorylation enrichment (FGFR1) | phosphorylation enrichment (Fer (mouse)) | phosphorylation enrichment (EPHB1) | phosphorylation enrichment (c-Abl (mouse)) | phosphorylation enrichment (Jak2) | phosphorylation enrichment (FGFR3) | phosphorylation enrichment (AncSZ) | phosphorylation enrichment (Fyn) | SH2 binding enrichment (c-Src SH2) | SH2 binding enrichment (Grb2 SH2) | SH2 binding enrichment (SHP2-C SH2)
LGNFNYEQRGA [API5_Y497] | 0.456 | 0.392 | 0.485 | 0.43 | 0.986 | 0.569 | 0.408 | 0.474 | 0.715 | 0.919 | 0.507 | 0.761 | 0.435 | 0.462 | 0.87 | 0.487
LGRTRYQDVTG [MIPEP_Y510_H512D] | 0.548 | 0.722 | 0.336 | 0.584 | 0.735 | 0.525 | 0.563 | 0.62 | 0.799 | 0.888 | 0.665 | 0.899 | 0.586 | 1 | 0.986 | 0.95
LICRRYLVMQR [IL3RA_Y328_V323L] | 1.72 | 1.01 | 0.729 | 1.01 | 2.01 | 0.926 | 0.956 | 0.827 | 1.22 | 2.35 | 0.834 | 2.5 | 0.564 | 0.414 | 0.695 | 0.675
LIDTVYSSSSA [OR4C12_Y71] | 0.782 | 0.641 | 3.42 | 3.25 | 1.57 | 0.979 | 0.96 | 0.757 | 1.03 | 1.19 | 1.32 | 1.06 | 3.74 | 0.551 | 0.603 | 0.734
LIFVSYDDWDF [GRIN2A_Y281_S278F_YF] | 2.89 | 2.03 | 1.1 | 1.79 | 4.34 | 1.38 | 17.4 | 2.23 | 2.77 | 4.29 | 2.55 | 4.68 | 1.02 | 1.01 | 1.68 | 1.53
LKDEDYLKDIV [HAUS3_Y582] | 0.843 | 0.884 | 0.787 | 1.02 | 1.85 | 1.04 | 1.4 | 0.861 | 1.64 | 2.87 | 0.988 | 2.21 | 0.791 | 0.455 | 0.912 | 0.983
LKKKQYTSIHH [APP_Y728] | 0.605 | 0.508 | 0.869 | 1.03 | 0.787 | 0.631 | 0.688 | 0.739 | 1.39 | 0.949 | 0.903 | 0.631 | 0.92 | 1.89 | 1.53 | 2.63
LKMLVYLDMSK [LRRC7_Y234] | 0.805 | 0.545 | 0.559 | 0.441 | 1.72 | 0.347 | 0.475 | 1.01 | 1.18 | 1.24 | 1.13 | 1.36 | 0.654 | 0.531 | 0.757 | 0.721
LKRIAYFLCLL [LGI1_Y21] | 0.536 | 0.424 | 0.394 | 0.484 | 1.53 | 0.696 | 0.714 | 0.64 | 0.821 | 1.09 | 0.741 | 1.05 | 0.506 | 1.23 | 1.4 | 1.18
LKTNWYNNGKD [DNMT3B_Y404_C403W] | 0.688 | 0.736 | 1.01 | 0.838 | 1.44 | 0.664 | 0.644 | 0.468 | 1.62 | 1.18 | 1.05 | 1.54 | 0.544 | 0.464 | 1.17 | 1.12
LLLLFYVVRFC [MPZ_Y177_YF] | 0.443 | 0.805 | 0.472 | 0.726 | 1.21 | 1.47 | 1.14 | 0.741 | 0.863 | 0.664 | 0.742 | 0.918 | 0.637 | 1.14 | 1.69 | 1.9
LLQAEYWHDPI [PPT1_Y185_V181L] | 0.511 | 0.726 | 0.667 | 0.864 | 1.96 | 4.99 | 0.74 | 0.682 | 1.62 | 1.55 | 3.92 | 1.89 | 0.975 | 1.27 | 0.805 | 0.803
LLTALYFISRG [KCNH2_Y780] | 0.859 | 3.27 | 1.24 | 1.81 | 1.69 | 0.8 | 0.716 | 0.645 | 1.05 | 1.25 | 0.71 | 1.57 | 0.732 | 2.43 | 2.34 | 1.99
LLVVLCKFRCF [PSEN1_Y154_Y154C_YF] | 0.694 | 0.984 | 0.887 | 1.48 | 1.73 | 0.648 | 0.722 | 0.619 | 1.23 | 1.82 | 0.999 | 1.4 | 0.731 | 1.57 | 1.82 | 1.84
LMLVLYGRIFL [HTR1A_Y215_R220L] | 0.692 | 0.651 | 0.654 | 0.778 | 1.93 | 0.851 | 0.745 | 1.11 | 0.996 | 1.28 | 0.968 | 1.11 | 0.433 | 0.556 | 1.16 | 0.776
LNERHYGGLTG [PGAM2_Y92] | 0.432 | 0.527 | 0.454 | 0.47 | 0.856 | 0.607 | 0.394 | 0.417 | 0.789 | 4.09 | 0.552 | 0.679 | 0.53 | 0.415 | 0.761 | 0.53
LPEHPYHSRPR [NDUFA8_Y142_N140H] | 1.57 | 1.17 | 1.9 | 1.27 | 3.08 | 1.02 | 1.03 | 0.861 | 0.828 | 0.823 | 2.71 | 1.97 | 2.04 | 0.704 | 0.958 | 0.538

Sequence | phosphorylation enrichment (EPHB2) | phosphorylation enrichment (MERTK) | phosphorylation enrichment (Hck) | phosphorylation enrichment (c-Src) | phosphorylation enrichment (Fes) | phosphorylation enrichment (FGFR1) | phosphorylation enrichment (Fer (mouse)) | phosphorylation enrichment (EPHB1) | phosphorylation enrichment (c-Abl (mouse)) | phosphorylation enrichment (Jak2) | phosphorylation enrichment (FGFR3) | phosphorylation enrichment (AncSZ) | phosphorylation enrichment (Fyn) | SH2 binding enrichment (c-Src SH2) | SH2 binding enrichment (Grb2 SH2) | SH2 binding enrichment (SHP2-C SH2)
LPENPYHSRPR [NDUFA8_Y142] | 0.41 | 0.415 | 0.916 | 1.8 | 0.632 | 0.442 | 0.384 | 0.3 | 0.761 | 0.552 | 0.408 | 0.643 | 0.72 | 0.561 | 1.03 | 0.637
LPIQTYSALNF [DES_Y423] | 11.7 | 15.9 | 18.9 | 8 | 1.24 | 2.1 | 11.1 | 14.3 | 1.59 | 1.27 | 2.07 | 1.01 | 13.8 | 1.08 | 0.735 | 0.834
LPKDLYLISQM [LARP4_Y141_S137P] | 0.757 | 0.785 | 0.891 | 0.788 | 2.13 | 1.15 | 0.646 | 0.784 | 1.2 | 1.46 | 1.55 | 2.15 | 0.69 | 0.406 | 1.02 | 0.795
LPKEQYLFTKE [AFG3L2_Y614_YF] | 0.471 | 0.499 | 0.996 | 0.406 | 1.49 | 0.623 | 0.817 | 1.2 | 0.551 | 0.532 | 1.51 | 0.83 | 1.59 | 0.762 | 0.911 | 1.06
LPSKDYAEVGR [HP_Y272] | 1.24 | 0.801 | 0.951 | 0.709 | 2.22 | 0.918 | 0.801 | 1.15 | 0.726 | 0.684 | 0.895 | 0.654 | 0.735 | 2.68 | 0.766 | 0.717
LPVHFYGHVEH [PYGM_Y204] | 0.889 | 1.07 | 0.935 | 0.803 | 1.74 | 1.54 | 1.9 | 1.33 | 1.26 | 1.63 | 1.66 | 1.68 | 1.58 | 1.48 | 1.2 | 1.01
LRGEDYGFSVD [PRKCI_Y430] | 0.668 | 0.623 | 0.58 | 0.512 | 1.35 | 0.587 | 0.636 | 0.686 | 1.12 | 1 | 0.835 | 1.1 | 0.518 | 0.42 | 0.697 | 0.675
LRSKQYLRNPP [SHC1_Y315_F312S] | 0.359 | 0.364 | 0.4 | 0.399 | 0.619 | 0.277 | 0.413 | 0.426 | 0.575 | 0.355 | 0.37 | 0.376 | 0.452 | 0.783 | 1.05 | 0.82
LSPNMYNSKFW [TARSL2_Y457_L461F] | 1.1 | 1.11 | 1.25 | 1.35 | 1.6 | 1.24 | 0.808 | 1.41 | 1.1 | 1.58 | 0.924 | 1.24 | 0.911 | 0.506 | 0.909 | 0.486
LSPNMYNSKLW [TARSL2_Y457] | 0.753 | 0.603 | 0.831 | 0.573 | 1.19 | 0.75 | 0.5 | 0.632 | 0.726 | 0.561 | 1.13 | 0.879 | 0.622 | 0.51 | 1.09 | 0.763
LSSEMCVKSYT [F5_Y2149_Y2149C] | 0.888 | 1.1 | 0.877 | 1.16 | 1.76 | 1.23 | 1.46 | 1.54 | 1.59 | 2.4 | 1.04 | 1.55 | 1.2 | 0.451 | 0.665 | 0.452
LSSETYVKSFT [F5_Y2149_M2148T_YF] | 1.7 | 0.379 | 0.858 | 0.512 | 1.14 | 0.743 | 0.511 | 0.789 | 0.595 | 1.06 | 0.735 | 0.969 | 0.665 | 0.587 | 0.798 | 0.74
LTKQEYDEAGP [ACTA1_Y364_I359L] | 1.23 | 0.817 | 1.15 | 0.996 | 1.71 | 0.811 | 0.638 | 0.696 | 1.39 | 1.62 | 1.07 | 2.03 | 0.809 | 8.7 | 1.08 | 0.874
LTSVKYLLSAT [GSDMC_Y26_P23S] | 0.566 | 0.376 | 0.466 | 0.393 | 0.635 | 0.482 | 0.406 | 0.465 | 0.437 | 0.818 | 0.541 | 0.703 | 0.418 | 0.679 | 1.03 | 0.801
LVRAFYCERRW [CARD11_Y970_R975W] | 0.623 | 0.64 | 0.634 | 0.489 | 0.745 | 0.575 | 0.59 | 0.671 | 0.695 | 0.857 | 0.697 | 1.05 | 0.649 | 0.49 | 0.953 | 0.681
LVTRSYLLGNS [LMNA_Y646] | 0.68 | 0.794 | 0.708 | 0.854 | 1.52 | 0.841 | 0.85 | 0.931 | 1.14 | 1.27 | 0.939 | 1.37 | 0.823 | 0.444 | 0.836 | 0.633
